# B1: F420-dependent glucose-6-phosphate dehydrogenase Rh-FGD1 from Rhodococcus jostii RHA1 (enzyme, UniProt Q0RVH7 1-335, looked up)
# chain: MVIKFGYKASAEQFGPRELVELGVLAEAHGMDSATVSDHFQPWRHEGGHAPFSLAWMTAVGERTSRLQLGTSVMTPTFRYNPAVVAQAFATMGCLYPGRIMLGVGTGEALNEIATGFAGEWPEFKERFARLREAVALMRELWLGDRVDFEGNYYKTVGASIYDVPEGGIPVYIAAGGPVVARYAGRSGDGFICTSGKGMELYTEKLMPAVAEGAEKADRDVAEIDKMIEIKISYDTDPELALENTRFWAPLSLTPEQKHSIDDPIEMERAADALPIEQVAKRWIVASDPDEAVAQIRPYLDAGLNHLVFHAPGHDQKRFLELFQRDLAPRLRGLA
# notes: each monomer is comprised of residues 1-334; The native enzyme (tag cleaved) was used for crystallization; also called RHA1_RS43115; native Rh-FGD1; source: E. coli C41(DE3), purified (HisTrap, His-SUMO tag cleaved with SUMO protease, second HisTrap, Superdex 200); not shown: His6, N-terminal, cleaved; SUMO, N-terminal, cleaved
# Target: the molecule itself
# Assay: SEC; gel permeation analysis in solution, data not shown
protein,measurement,value
B1,stoichiometry N,2

# From publication PMC5352752, “Discovery and characterization of an F420-dependent glucose-6-phosphate dehydrogenase (Rh-FGD1) from Rhodococcus jostii RHA1” (Applied Microbiology and Biotechnology, 2016)
